Reference: US20210371480

Key:
[1] = molecular target: C3b (Complement Technology cat. A114), purified human C3b (UniProt P01024)
[2] = molecular target: C3b (Complement Technology cat. A114), purified human C3b, P01024
C3b (Complement Technology cat. A114), purified human C3b, P01024, sequence (P01024 whole entry, looked up): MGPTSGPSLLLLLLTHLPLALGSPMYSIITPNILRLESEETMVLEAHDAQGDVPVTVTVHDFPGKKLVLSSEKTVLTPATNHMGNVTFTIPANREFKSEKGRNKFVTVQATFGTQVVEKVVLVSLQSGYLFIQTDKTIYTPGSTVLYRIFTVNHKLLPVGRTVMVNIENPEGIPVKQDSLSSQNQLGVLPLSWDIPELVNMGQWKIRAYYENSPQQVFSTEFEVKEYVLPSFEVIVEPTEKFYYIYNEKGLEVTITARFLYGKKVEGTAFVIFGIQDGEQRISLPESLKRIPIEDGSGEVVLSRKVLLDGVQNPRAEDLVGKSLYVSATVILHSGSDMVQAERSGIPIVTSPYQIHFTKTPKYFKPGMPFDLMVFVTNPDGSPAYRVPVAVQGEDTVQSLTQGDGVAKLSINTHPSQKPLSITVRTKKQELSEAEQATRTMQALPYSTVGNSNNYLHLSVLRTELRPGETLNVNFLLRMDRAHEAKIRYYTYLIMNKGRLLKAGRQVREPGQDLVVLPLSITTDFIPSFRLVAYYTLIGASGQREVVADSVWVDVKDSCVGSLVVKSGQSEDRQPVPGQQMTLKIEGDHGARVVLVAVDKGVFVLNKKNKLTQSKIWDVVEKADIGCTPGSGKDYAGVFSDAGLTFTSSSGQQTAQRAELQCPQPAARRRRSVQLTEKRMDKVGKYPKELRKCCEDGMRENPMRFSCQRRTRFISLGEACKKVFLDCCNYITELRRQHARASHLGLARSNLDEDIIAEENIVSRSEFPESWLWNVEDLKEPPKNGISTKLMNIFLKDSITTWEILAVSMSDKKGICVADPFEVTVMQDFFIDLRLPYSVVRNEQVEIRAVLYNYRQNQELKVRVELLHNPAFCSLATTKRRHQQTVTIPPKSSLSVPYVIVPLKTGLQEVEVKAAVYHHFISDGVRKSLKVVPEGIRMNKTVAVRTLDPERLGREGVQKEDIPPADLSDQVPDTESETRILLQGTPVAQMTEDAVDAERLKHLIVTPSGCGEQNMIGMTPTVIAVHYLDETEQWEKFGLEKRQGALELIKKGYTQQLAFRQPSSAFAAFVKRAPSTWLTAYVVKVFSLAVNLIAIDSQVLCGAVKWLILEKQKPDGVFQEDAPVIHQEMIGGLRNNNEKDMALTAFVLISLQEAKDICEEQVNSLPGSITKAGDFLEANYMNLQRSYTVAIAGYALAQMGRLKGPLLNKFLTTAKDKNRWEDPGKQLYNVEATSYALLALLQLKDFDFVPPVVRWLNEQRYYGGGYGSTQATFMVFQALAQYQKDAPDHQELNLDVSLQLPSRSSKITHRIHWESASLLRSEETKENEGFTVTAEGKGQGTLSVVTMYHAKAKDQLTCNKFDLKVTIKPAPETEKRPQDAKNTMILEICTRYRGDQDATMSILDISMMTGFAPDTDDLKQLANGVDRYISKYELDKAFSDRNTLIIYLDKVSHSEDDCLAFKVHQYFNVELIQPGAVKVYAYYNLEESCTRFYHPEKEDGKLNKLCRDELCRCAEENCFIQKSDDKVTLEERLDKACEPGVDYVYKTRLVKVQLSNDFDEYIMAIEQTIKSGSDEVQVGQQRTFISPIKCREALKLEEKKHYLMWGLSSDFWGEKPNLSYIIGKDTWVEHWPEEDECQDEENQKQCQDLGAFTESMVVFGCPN

| Molecule | fluorescence cofactor assay: change in RFUs of ANS-labeled C3b over time, with cofactor CFH, MCP or CR1 [1] | also measured |
| --- | --- | --- |
| A240G CFI protein (Complement Factor I mutant variant) | certain CFI mutations (G119R, A240G, and P553S) were associated with greatly reduced CFI protein function | – |
| A300T CFI protein (Complement Factor I mutant variant) | the A300T mutation appeared to have relatively little impact on CFI function | – |
| G119R CFI protein (Complement Factor I mutant variant) | certain CFI mutations (G119R, A240G, and P553S) were associated with greatly reduced CFI protein function | – |
| P553S CFI protein (Complement Factor I mutant variant) | certain CFI mutations (G119R, A240G, and P553S) were associated with greatly reduced CFI protein function | – |
| purified CFI (Comptech cat. A138) (protein) KVTYTSQEDLVEKKCLAKKYTHLSCDKVFCQPWQRCIEGTCVCKLPYQCPKNGTAVCATNRRSFPTYCQQKSLECLHPGTKFLNNGTCTAEGKFSVSLKHGNTDSEGIVEVKLVDQDKTMFICKSSWSMREANVACLDLGFQQGADTQRRFKLSDLSINSTECLHVHCRGLETSLAECTFTKRRTMGYQDFADVVCYTQKADSPMDDFFQCVNGKYISQMKACDGINDCGDQSDELCCKACQGKGFHCKSGVCIPSQYQCNGEVDCITGEDEVGCAGFASVTQEETEILTADMDAERRRIKSLLPKLSCGVKNRMHIRRKRIVGGKRAQLGDLPWQVAIKDASGITCGGIYIGGCWILTAAHCLRASKTHRYQIWTTVVDWIHPDLKRIVIEYVDRIIFHENYNAGTYQNDIALIEMKKDGNKKDCELPRSIPACVPWSPYLFQPNDTCIVSGWGREKDNERVFSLQWGEVKLISNCSKFYGNRFYEKEMECAGTYDGSIDACKGDSGGPLVCMDANNVTYVWGVVSWGENCGKPEFPGVYTKVANYFDWISYHVGRPFISQYNV | – | slope of the co-factor assay (fluorescence of C3b/ANS with CFH, kinetic mode) [2]: the slope of the CFI control sample is -0.75±0.02 |
| CFI expressed in eyes of cynomolgus monkeys from AAV2-GP2031 (vector SEQ ID NO: 33) (protein) KVTYTSQEDLVEKKCLAKKYTHLSCDKVFCQPWQRCIEGTCVCKLPYQCPKNGTAVCATNRRSFPTYCQQKSLECLHPGTKFLNNGTCTAEGKFSVSLKHGNTDSEGIVEVKLVDQDKTMFICKSSWSMREANVACLDLGFQQGADTQRRFKLSDLSINSTECLHVHCRGLETSLAECTFTKRRTMGYQDFADVVCYTQKADSPMDDFFQCVNGKYISQMKACDGINDCGDQSDELCCKACQGKGFHCKSGVCIPSQYQCNGEVDCITGEDEVGCAGFASVAQEETEILTADMDAERRRIKSLLPKLSCGVKNRMHIRRKRIVGGKRAQLGDLPWQVAIKDASGITCGGIYIGGCWILTAAHCLRASKTHRYQIWTTVVDWIHPDLKRIVIEYVDRIIFHENYNAGTYQNDIALIEMKKDGNKKDCELPRSIPACVPWSPYLFQPNDTCIVSGWGREKDNERVFSLQWGEVKLISNCSKFYGNRFYEKEMECAGTYDGSIDACKGDSGGPLVCMDANNVTYVWGVVSWGENCGKPEFPGVYTKVANYFDWISYHVGRPFISQYNV | – | fluorescence cofactor assay with CFH: reduction in fluorescence at 472 nm of C3b/ANS mixed with vitreous humor [2]: CFI expressed in eyes of cynomolgus monkeys was capable of cleaving C3b in a dose-dependent manner |
